Source: the supplement of paper PMC7125110
± gives the standard error. Fewer inactive variants are shown than the library holds.

B1: glmS ribozyme (parent)
chain: AUAAAAGCGCCAGAACUACAGAAAUGUAGUUGACGAGGAGGAGGUUUAUCGAAUUUUCGGCGGAUGCCUCCAAA

Columns and labels:
Settings in all cases: with glucosamine-6-phosphate
[1] = variants of: B1; assay: self-cleavage kobs at 40 uM GlcN6P; higher = faster cleavage; RNA array
In short: (§1)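 The measurements used barcoded ribozyme variants on sequenced MiSeq chips, transcribed in situ by E. coli RNA polymerase and tracked at 37 °C with a hybridised Cy3 probe. Glucosamine-6-phosphate, 40 μM to 10 mM in HEPES/KCl/Mg(OAc)2 buffer, was flowed in while tiles were imaged over ~14 h. Baseline-normalised signals, also normalised to non-cleaving reference variants, gave per-tile medians that were fit to one- or two-exponential decays for kobs. kcat and KM resulted from weighted Michaelis–Menten fits across concentrations.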

[2] = variants of: B1; assay: self-cleavage kobs at 640 uM GlcN6P; higher = faster cleavage; RNA array
In short: as §1

[3] = variants of: B1; assay: self-cleavage kobs at 10000 uM GlcN6P; higher = faster cleavage; RNA array
In short: as §1

[4] = variants of: B1; assay: self-cleavage kobs at 160 uM GlcN6P; higher = faster cleavage; RNA array
In short: as §1

[5] = variants of: B1; assay: self-cleavage kobs at 2500 uM GlcN6P; higher = faster cleavage; RNA array
In short: as §1

## U30C G62C
[1]
  self-cleavage kobs at 40 uM GlcN6P: < 1e-05 s⁻¹
[2]
  self-cleavage kobs at 640 uM GlcN6P: < 1e-05 s⁻¹
[3]
  self-cleavage kobs at 10000 uM GlcN6P: < 1e-05 s⁻¹

## A14C C50G C68A
[1]
  self-cleavage kobs at 40 uM GlcN6P: 4.86e-05 ± 1.6e-05 s⁻¹
[3]
  self-cleavage kobs at 10000 uM GlcN6P: 0.000123 ± 2.5e-05 s⁻¹

## C11A A14U G66U C67A
[1]
  self-cleavage kobs at 40 uM GlcN6P: < 1e-05 s⁻¹

## G38C G41A
[1]
  self-cleavage kobs at 40 uM GlcN6P: < 1e-05 s⁻¹
[4]
  self-cleavage kobs at 160 uM GlcN6P: < 1e-05 s⁻¹
[2]
  self-cleavage kobs at 640 uM GlcN6P: < 1e-05 s⁻¹
[5]
  self-cleavage kobs at 2500 uM GlcN6P: < 1e-05 s⁻¹
[3]
  self-cleavage kobs at 10000 uM GlcN6P: < 1e-05 s⁻¹

## A39G U56G
[1]
  self-cleavage kobs at 40 uM GlcN6P: 0.00055 ± 0.00012 s⁻¹
[3]
  self-cleavage kobs at 10000 uM GlcN6P: 0.0224 ± 0.0047 s⁻¹

## G51U A53C
[1]
  self-cleavage kobs at 40 uM GlcN6P: < 1e-05 s⁻¹
[4]
  self-cleavage kobs at 160 uM GlcN6P: < 1e-05 s⁻¹
[2]
  self-cleavage kobs at 640 uM GlcN6P: < 1e-05 s⁻¹

## G13A A14U C50G C68U
[1]
  self-cleavage kobs at 40 uM GlcN6P: 8.53e-05 ± 1.7e-05 s⁻¹
[2]
  self-cleavage kobs at 640 uM GlcN6P: 0.000187 ± 4.7e-05 s⁻¹
[5]
  self-cleavage kobs at 2500 uM GlcN6P: 0.000455 ± 0.00016 s⁻¹
[3]
  self-cleavage kobs at 10000 uM GlcN6P: 0.000103 ± 1.5e-05 s⁻¹

## U46A C50G A53U C70G
[1]
  self-cleavage kobs at 40 uM GlcN6P: 0.000147 ± 6.3e-05 s⁻¹
[3]
  self-cleavage kobs at 10000 uM GlcN6P: 0.000126 ± 3.8e-05 s⁻¹

## A6U C10A C11G A12C U54C
[1]
  self-cleavage kobs at 40 uM GlcN6P: < 1e-05 s⁻¹
[3]
  self-cleavage kobs at 10000 uM GlcN6P: < 1e-05 s⁻¹

## A14U U30C G44A U46G
[1]
  self-cleavage kobs at 40 uM GlcN6P: < 1e-05 s⁻¹
[2]
  self-cleavage kobs at 640 uM GlcN6P: < 1e-05 s⁻¹
[5]
  self-cleavage kobs at 2500 uM GlcN6P: < 1e-05 s⁻¹
[3]
  self-cleavage kobs at 10000 uM GlcN6P: < 1e-05 s⁻¹

## G44A C70A
[1]
  self-cleavage kobs at 40 uM GlcN6P: < 1e-05 s⁻¹
[4]
  self-cleavage kobs at 160 uM GlcN6P: < 1e-05 s⁻¹
[5]
  self-cleavage kobs at 2500 uM GlcN6P: < 1e-05 s⁻¹
[3]
  self-cleavage kobs at 10000 uM GlcN6P: < 1e-05 s⁻¹

## G7U U54G C70G C71U
[1]
  self-cleavage kobs at 40 uM GlcN6P: 7.3e-05 ± 2.8e-05 s⁻¹
[3]
  self-cleavage kobs at 10000 uM GlcN6P: 5.65e-05 ± 2.5e-05 s⁻¹

## A6G C50G A53G C58U
[1]
  self-cleavage kobs at 40 uM GlcN6P: 0.000224 ± 9.8e-05 s⁻¹

## A6C A33U C58G G60U C71A
[1]
  self-cleavage kobs at 40 uM GlcN6P: < 1e-05 s⁻¹

## C11A A12U A52U
[1]
  self-cleavage kobs at 40 uM GlcN6P: < 1e-05 s⁻¹

## A33U A52C
[1]
  self-cleavage kobs at 40 uM GlcN6P: < 1e-05 s⁻¹
[4]
  self-cleavage kobs at 160 uM GlcN6P: < 1e-05 s⁻¹
[3]
  self-cleavage kobs at 10000 uM GlcN6P: < 1e-05 s⁻¹

## G51C G60U
[1]
  self-cleavage kobs at 40 uM GlcN6P: < 1e-05 s⁻¹
[4]
  self-cleavage kobs at 160 uM GlcN6P: < 1e-05 s⁻¹
[2]
  self-cleavage kobs at 640 uM GlcN6P: < 1e-05 s⁻¹
[3]
  self-cleavage kobs at 10000 uM GlcN6P: < 1e-05 s⁻¹

## A42G U57A G66U
[1]
  self-cleavage kobs at 40 uM GlcN6P: < 1e-05 s⁻¹

## C34U G35U
[1]
  self-cleavage kobs at 40 uM GlcN6P: < 1e-05 s⁻¹
[4]
  self-cleavage kobs at 160 uM GlcN6P: < 1e-05 s⁻¹
[2]
  self-cleavage kobs at 640 uM GlcN6P: < 1e-05 s⁻¹
[5]
  self-cleavage kobs at 2500 uM GlcN6P: < 1e-05 s⁻¹
[3]
  self-cleavage kobs at 10000 uM GlcN6P: < 1e-05 s⁻¹

## U57A U65C
[1]
  self-cleavage kobs at 40 uM GlcN6P: < 1e-05 s⁻¹
[2]
  self-cleavage kobs at 640 uM GlcN6P: < 1e-05 s⁻¹

## A6G G32U G37C A64U C68G C70G
[1]
  self-cleavage kobs at 40 uM GlcN6P: < 1e-05 s⁻¹

## G38A C58U G59U
[1]
  self-cleavage kobs at 40 uM GlcN6P: < 1e-05 s⁻¹
[3]
  self-cleavage kobs at 10000 uM GlcN6P: < 1e-05 s⁻¹

## U56A C67U
[1]
  self-cleavage kobs at 40 uM GlcN6P: 0.000175 ± 1.9e-05 s⁻¹
[4]
  self-cleavage kobs at 160 uM GlcN6P: 0.000452 ± 6.1e-05 s⁻¹
[2]
  self-cleavage kobs at 640 uM GlcN6P: 0.000938 ± 8.9e-05 s⁻¹
[5]
  self-cleavage kobs at 2500 uM GlcN6P: 0.00474 ± 0.00085 s⁻¹
[3]
  self-cleavage kobs at 10000 uM GlcN6P: 0.00679 ± 0.0012 s⁻¹

## C11G G13A
[1]
  self-cleavage kobs at 40 uM GlcN6P: < 1e-05 s⁻¹
[4]
  self-cleavage kobs at 160 uM GlcN6P: < 1e-05 s⁻¹
[3]
  self-cleavage kobs at 10000 uM GlcN6P: < 1e-05 s⁻¹

## C34U G66U
[1]
  self-cleavage kobs at 40 uM GlcN6P: < 1e-05 s⁻¹
[4]
  self-cleavage kobs at 160 uM GlcN6P: < 1e-05 s⁻¹
[3]
  self-cleavage kobs at 10000 uM GlcN6P: < 1e-05 s⁻¹
